From paper PMC11931385, “Structural and functional analysis of cancer-associated missense variants in the retinoblastoma protein pocket domain” (The Journal of Biological Chemistry, 2025)
No end group written: not given here. TMR = tetramethyl rhodamine dye

T1: Rb^P E539D (human, UniProt P06400 380-788, E539D)
T1 construct: also called variant 24
T1 sequence (looked up): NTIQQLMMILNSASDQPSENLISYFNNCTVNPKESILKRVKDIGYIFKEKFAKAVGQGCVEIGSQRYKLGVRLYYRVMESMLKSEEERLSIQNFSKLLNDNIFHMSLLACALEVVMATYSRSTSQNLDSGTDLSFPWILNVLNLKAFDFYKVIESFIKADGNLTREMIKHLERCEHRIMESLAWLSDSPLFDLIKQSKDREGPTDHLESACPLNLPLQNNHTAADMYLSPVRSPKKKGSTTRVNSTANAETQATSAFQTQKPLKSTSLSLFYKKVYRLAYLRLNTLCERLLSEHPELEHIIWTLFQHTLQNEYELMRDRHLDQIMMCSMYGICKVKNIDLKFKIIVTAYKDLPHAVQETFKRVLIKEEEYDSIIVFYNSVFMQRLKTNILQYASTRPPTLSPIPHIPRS

T2: Rb^P P595L (human, UniProt P06400 380-788, P595L)
T2 construct: also called variant 35
T2 sequence (looked up): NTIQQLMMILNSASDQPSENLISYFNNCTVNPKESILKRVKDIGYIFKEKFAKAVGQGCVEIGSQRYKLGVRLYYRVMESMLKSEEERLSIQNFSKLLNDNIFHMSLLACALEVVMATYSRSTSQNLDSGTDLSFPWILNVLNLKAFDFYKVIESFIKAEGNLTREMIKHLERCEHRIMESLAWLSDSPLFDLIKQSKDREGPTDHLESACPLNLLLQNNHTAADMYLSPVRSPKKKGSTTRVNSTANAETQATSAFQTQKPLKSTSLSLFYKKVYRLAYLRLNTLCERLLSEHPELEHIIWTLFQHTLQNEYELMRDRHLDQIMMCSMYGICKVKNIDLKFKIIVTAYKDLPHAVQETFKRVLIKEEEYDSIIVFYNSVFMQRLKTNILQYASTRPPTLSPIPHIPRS

T3: Rb^P R656Q (human, UniProt P06400 380-788, R656Q)
T3 construct: also called variant 48
T3 sequence (looked up): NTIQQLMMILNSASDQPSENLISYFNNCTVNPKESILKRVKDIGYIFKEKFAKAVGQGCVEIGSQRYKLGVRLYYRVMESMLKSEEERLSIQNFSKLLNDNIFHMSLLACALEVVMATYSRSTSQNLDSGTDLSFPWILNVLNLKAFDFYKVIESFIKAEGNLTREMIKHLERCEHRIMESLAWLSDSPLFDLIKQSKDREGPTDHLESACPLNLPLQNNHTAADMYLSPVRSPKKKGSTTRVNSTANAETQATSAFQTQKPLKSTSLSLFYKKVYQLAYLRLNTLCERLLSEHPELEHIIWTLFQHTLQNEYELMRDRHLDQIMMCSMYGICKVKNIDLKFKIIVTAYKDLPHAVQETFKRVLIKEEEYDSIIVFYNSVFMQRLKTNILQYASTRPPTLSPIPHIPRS

T4: Rb^P R656W (human, UniProt P06400 380-788, R656W)
T4 construct: also called variant 49
T4 sequence (looked up): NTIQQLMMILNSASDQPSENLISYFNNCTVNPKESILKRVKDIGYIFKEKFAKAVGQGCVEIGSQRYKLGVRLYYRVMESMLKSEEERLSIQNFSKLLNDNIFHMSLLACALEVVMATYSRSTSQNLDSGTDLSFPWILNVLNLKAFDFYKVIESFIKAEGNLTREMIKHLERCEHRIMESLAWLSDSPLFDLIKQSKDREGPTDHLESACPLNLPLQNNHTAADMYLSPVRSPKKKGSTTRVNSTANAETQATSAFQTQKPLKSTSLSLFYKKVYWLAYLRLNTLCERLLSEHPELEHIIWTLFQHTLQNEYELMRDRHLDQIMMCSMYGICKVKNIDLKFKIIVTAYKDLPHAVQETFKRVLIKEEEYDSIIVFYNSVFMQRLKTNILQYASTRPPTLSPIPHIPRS

T5: Rb^P R741H (human, UniProt P06400 380-788, R741H)
T5 construct: also called variant 69
T5 sequence (looked up): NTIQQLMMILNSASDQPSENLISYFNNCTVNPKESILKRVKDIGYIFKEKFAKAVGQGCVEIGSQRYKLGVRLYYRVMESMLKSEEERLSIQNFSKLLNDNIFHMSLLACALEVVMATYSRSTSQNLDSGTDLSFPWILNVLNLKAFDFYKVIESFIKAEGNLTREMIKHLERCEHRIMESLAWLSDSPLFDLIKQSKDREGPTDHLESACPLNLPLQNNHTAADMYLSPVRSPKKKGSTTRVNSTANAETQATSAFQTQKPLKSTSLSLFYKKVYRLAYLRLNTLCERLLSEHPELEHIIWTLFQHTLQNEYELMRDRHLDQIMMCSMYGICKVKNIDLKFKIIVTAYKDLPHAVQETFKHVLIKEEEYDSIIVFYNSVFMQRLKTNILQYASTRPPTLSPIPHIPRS


Experiments:
Experiment in all cases: fluorescence polarisation; 25 °C; unlabeled Rb^P titrated against 1.5 nM TMR-E2F1^TD or 7.5 nM TMR-E7^LxCxE; 25 mM Tris pH 8.0, 200 mM NaCl, 1 mM DTT, 0.1% Tween-20; 2 min incubation; quadratic fit; apparent Kd for the variants, Kd for WT
Details in all cases: both partners purified
Rb^P E539D = biological target: T1, Rb^P E539D
Rb^P P595L = biological target: T2, Rb^P P595L
Rb^P R656Q = biological target: T3, Rb^P R656Q
Rb^P R656W = biological target: T4, Rb^P R656W
Rb^P R741H = biological target: T5, Rb^P R741H

Binder | Kd (Rb^P E539D) | Kd (Rb^P P595L) | Kd (Rb^P R656Q) | Kd (Rb^P R656W) | Kd (Rb^P R741H)
{TMR}-GEGIRDLFDCDFGDLTPLD (also called E2F^TD; source: synthetic peptide, bought: GenScript) [TMR-E2F1^TD, peptide of the E2F1 transactivation domain] | 55 nM | 46 nM | 183 nM | 39 nM | 21 nM
DLYCYEQLN (also: TMR label, position not given here, source: synthetic peptide, bought: GenScript) [TMR-E7^LxCxE, LxCxE peptide of the E7 oncoprotein from HPV] | 7 nM | 14 nM | 6 nM | 8 nM | 18 nM
